{"source": "patent US20190017043A1", "biological_target": "MBP-Z-N6K (Z-domain protein with Asn6 mutated to Lys, fused with maltose binding protein) [MBP: P0AEX9]", "assay": "covalent protein-protein cross-linking after sodium periodate treatment, 4 hours, SDS-PAGE", "data": [{"substance": "AFB-D36DOPA (ZSPA affibody with L-DOPA genetically incorporated at position 36) (designed binder)", "values": [{"measurement": "cross-linked products", "result": "70 to 75", "unit": "%"}]}]}
